T1: SGK3(h) (human, UniProt Q96BR1 1-496, limits assumed)
T1 sequence (looked up): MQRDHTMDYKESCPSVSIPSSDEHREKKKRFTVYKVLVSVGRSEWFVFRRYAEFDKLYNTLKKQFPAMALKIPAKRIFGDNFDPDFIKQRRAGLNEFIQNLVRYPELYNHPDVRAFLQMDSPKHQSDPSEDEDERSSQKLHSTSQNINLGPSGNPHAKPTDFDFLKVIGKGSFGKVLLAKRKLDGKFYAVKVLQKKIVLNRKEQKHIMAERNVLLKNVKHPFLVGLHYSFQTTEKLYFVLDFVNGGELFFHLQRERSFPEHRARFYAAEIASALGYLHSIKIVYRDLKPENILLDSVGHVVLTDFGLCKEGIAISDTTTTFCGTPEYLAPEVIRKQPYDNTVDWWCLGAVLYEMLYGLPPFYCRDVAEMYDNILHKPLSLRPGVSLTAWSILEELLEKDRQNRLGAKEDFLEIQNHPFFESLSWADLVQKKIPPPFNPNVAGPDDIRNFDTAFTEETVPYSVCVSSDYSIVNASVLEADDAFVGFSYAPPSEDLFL

T2: CHK1(h) (human, UniProt O14757 1-476)
T2 sequence (looked up): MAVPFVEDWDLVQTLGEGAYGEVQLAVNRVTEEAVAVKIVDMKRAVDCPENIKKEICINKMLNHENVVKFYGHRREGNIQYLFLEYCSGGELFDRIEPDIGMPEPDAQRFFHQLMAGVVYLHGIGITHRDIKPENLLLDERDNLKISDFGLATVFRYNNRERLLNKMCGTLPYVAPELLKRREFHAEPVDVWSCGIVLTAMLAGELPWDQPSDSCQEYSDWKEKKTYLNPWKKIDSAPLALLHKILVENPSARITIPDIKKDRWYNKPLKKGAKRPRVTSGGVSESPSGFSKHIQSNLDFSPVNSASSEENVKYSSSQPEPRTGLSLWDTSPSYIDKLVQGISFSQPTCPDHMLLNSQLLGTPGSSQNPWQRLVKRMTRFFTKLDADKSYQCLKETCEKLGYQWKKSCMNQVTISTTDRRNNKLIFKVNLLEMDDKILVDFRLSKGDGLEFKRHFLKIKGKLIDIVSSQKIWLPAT

T3: PRAK(h) (human, UniProt Q8IW41 1-473, limits assumed)
T3 sequence (looked up): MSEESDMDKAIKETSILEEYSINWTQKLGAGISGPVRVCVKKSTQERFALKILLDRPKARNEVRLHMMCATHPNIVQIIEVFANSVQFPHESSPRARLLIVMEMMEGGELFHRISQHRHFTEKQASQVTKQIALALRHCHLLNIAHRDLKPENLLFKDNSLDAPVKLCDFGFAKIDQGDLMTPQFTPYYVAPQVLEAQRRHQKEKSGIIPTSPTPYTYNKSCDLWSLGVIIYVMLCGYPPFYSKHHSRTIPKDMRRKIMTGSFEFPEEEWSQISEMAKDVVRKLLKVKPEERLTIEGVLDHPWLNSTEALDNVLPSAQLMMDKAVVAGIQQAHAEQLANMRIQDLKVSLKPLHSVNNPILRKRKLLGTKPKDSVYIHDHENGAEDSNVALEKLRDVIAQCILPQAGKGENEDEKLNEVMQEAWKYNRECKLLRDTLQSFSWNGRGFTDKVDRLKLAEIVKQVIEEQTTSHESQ

T4: ZAP-70(h) (human, UniProt P43403 1-619)
T4 sequence (looked up): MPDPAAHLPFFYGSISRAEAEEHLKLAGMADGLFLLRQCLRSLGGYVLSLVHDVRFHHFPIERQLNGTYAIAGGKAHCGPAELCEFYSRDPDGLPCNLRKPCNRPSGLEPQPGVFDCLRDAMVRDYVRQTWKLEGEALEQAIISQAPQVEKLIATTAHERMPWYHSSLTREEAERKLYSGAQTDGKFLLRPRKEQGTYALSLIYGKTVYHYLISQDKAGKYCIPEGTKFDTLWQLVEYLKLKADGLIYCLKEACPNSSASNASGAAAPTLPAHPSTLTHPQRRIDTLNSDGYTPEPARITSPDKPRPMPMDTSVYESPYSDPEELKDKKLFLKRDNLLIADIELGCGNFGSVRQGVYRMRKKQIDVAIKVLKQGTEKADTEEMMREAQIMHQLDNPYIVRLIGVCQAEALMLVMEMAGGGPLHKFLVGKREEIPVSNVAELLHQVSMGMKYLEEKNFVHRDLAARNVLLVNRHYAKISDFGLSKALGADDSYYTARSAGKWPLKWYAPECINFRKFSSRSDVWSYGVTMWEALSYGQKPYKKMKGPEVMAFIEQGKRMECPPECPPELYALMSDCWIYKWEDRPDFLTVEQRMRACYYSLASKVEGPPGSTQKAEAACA

T5: DYRK2(h) (human, UniProt Q92630 1-601, limits assumed)
T5 sequence (looked up): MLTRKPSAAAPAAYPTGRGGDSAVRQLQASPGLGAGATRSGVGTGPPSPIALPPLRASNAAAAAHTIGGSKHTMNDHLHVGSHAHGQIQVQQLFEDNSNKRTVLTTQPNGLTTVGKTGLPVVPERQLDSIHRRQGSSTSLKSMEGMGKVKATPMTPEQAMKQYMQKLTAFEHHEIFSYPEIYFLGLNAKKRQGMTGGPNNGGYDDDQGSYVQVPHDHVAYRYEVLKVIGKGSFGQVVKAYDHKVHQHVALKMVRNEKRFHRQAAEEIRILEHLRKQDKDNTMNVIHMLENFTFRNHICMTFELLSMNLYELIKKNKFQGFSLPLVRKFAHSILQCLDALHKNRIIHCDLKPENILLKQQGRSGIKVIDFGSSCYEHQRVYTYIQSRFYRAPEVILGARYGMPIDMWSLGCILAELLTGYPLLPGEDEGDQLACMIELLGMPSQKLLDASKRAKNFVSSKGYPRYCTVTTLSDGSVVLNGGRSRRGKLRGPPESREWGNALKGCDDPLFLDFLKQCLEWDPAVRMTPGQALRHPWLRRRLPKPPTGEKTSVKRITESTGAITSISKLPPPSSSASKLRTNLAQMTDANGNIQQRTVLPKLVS


How the values were obtained:
Assay in all cases: cell-based or functional assay
[1] = target: MSSK1(h) (human, UniProt Q9UPE1 1-567, limits assumed)
MSSK1(h), sequence (Q9UPE1 whole entry): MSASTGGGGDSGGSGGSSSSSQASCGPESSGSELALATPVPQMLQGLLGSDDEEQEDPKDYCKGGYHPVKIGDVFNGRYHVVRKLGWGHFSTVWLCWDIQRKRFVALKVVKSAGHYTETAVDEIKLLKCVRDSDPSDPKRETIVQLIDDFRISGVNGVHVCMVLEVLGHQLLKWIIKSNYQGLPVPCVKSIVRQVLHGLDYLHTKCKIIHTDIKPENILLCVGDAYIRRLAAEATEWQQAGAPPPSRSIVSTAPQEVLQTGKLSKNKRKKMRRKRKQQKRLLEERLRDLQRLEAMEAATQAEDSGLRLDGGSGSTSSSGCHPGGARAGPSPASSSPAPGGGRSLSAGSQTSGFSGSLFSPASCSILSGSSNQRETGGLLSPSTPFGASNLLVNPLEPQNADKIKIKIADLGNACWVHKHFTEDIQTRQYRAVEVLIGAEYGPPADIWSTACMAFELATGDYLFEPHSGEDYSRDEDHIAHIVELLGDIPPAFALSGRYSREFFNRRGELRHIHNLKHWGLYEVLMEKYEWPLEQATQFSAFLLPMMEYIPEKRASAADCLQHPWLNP

[2] = target: T1, SGK3(h)
[3] = target: T2, CHK1(h)
[4] = target: PTK5(h) (human, UniProt P42685 1-505, limits assumed)
PTK5(h), sequence (P42685 whole entry): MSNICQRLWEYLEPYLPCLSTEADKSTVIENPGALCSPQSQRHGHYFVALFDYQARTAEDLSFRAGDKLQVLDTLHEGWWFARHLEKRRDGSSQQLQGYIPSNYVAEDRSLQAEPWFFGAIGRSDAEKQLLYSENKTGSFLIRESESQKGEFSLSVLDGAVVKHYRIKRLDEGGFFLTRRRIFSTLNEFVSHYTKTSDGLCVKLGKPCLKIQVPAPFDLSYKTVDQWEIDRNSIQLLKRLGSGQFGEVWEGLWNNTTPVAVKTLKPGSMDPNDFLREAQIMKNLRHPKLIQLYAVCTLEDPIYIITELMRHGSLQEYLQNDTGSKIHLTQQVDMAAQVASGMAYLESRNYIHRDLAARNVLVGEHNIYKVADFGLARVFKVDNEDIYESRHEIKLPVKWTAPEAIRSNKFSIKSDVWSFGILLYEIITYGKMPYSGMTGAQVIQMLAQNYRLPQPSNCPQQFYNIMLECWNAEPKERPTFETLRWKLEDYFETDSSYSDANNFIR

[5] = target: BRK(h) (human, UniProt Q13882 1-451, limits assumed)
[6] = target: T3, PRAK(h)
[7] = target: T4, ZAP-70(h)
[8] = target: Fyn(h) (human, UniProt P06241 1-537)
Fyn(h), sequence (P06241 whole entry): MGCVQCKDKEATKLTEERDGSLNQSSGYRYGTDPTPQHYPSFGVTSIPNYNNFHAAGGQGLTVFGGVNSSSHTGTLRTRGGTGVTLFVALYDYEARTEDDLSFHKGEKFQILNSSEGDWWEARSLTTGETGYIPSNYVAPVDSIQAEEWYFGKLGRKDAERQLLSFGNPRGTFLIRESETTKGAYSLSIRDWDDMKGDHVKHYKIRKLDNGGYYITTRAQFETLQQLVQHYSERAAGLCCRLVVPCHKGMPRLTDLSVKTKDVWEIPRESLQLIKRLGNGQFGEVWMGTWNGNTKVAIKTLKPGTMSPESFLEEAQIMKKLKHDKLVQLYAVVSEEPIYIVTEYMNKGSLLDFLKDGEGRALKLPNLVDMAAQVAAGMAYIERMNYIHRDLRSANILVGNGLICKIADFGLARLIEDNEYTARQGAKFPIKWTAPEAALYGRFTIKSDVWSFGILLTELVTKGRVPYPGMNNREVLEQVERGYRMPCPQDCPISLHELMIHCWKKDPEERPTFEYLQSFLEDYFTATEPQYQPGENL

[9] = target: T5, DYRK2(h)

Binder	% activity, 100 µM [1] [%]	% activity, 100 µM [2] [%]	% activity, 100 µM [3] [%]	% activity, 100 µM [4] [%]	% activity, 100 µM [5] [%]	% activity, 100 µM [6] [%]	% activity, 100 µM [7] [%]	% activity, 100 µM [8] [%]	% activity, 100 µM [9] [%]
FAKLAARLYRKALARQLGVAA [MMI-0300]	77	10	91	132	35	128	75	74	155
KAFAKLAARLYRKALARQLGVAA [MMI-0400]	75	8	87	129	18	118	33	54	195

— US20140072613A1 (published 2014)
